Test results from the supplement of paper PMC10724198.
± gives the standard deviation of the averaged measurements.

Test system: Saccharomyces cerevisiae
Assay: protein stability index of tFT-peptide fusion (C-terminal peptide) (PSI (0-1 scale)); higher = more stable (slower turnover)
Conditions: genetic background: doa10 deletion; temperature: 30 C
Method: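 MPS profiling in S. cerevisiae of the tFT-X12 degron library: putative degron peptides plus stable controls, 12 aa, fused to the C-terminus of a sfGFP-mCherry timer. Cells are FACS-sorted into 8 mCherry/sfGFP bins and deep-sequenced. PSI runs from 0 (unstable) to 1 (stable). Backgrounds are wild type, das1Δ and doa10Δ at 30 °C, and wild type, das1Δ, cdc34-1 and cdc53-1 at 37 °C; 2-3 technical replicates each.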
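Also: PSI is a weighted mean of sequencing reads over stability bins, variants kept only with over 10 reads, mCherry proximal and sfGFP distal, peptide attached via GGGS linker.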

First: GVKSQLYSFVWF
Second: GVRCRLVIRVLG
The protein stability index of the first is higher: 0.3088 ± 0.0017 for the first, 0.16864 ± 0.00011 for the second.

First: GVSFLFVGVSLV
Second: GVVCWVVVFGGW
The protein stability index of the first is higher: 0.3088 ± 0.00076 for the first, 0.233 ± 0.0029 for the second.

Compared with GVWSLDWFLLVW, GWFCLFFVVSTG is higher in protein stability index: 0.134 ± 0.016 for the first, 0.203 ± 0.0087 for the second.

Going from GWIFFYFTWFVG to GWLSVLVYFLSG, the protein stability index rises from 0.181 ± 0.029 to 0.284 ± 0.0044.

First: GWVSCCVWSFLV
Second: HALCLSVYVSAH
The protein stability index of the first is lower: 0.066 ± 0.012 for the first, 0.179 ± 0.0045 for the second.

First: HCLLQDVPPTLH
Second: HCNRRNKIYWYS
The protein stability index of the first is higher: 0.703 ± 0.021 for the first, 0.106 ± 0.019 for the second.

First: HILRLVYFIVYE
Second: HLYCYNILLVSG
The protein stability index of the first is higher: 0.264 ± 0.01 for the first, 0.201 ± 0.018 for the second.

Going from HSPRVLLPLYFR to ICFPLQIFRILV, the protein stability index falls from 0.672 ± 0.02 to 0.211 ± 0.014.

Compared with IEVGVAILLLGE, IFFSLFFFFLCN is lower in protein stability index: 0.5066 ± 0.0028 for the first, 0.35 ± 0.03 for the second.

Going from IGLSIWSVVSAL to IILGVRQIEVNS, the protein stability index rises from 0.253 ± 0.0069 to 0.323 ± 0.0071.

Going from IKSIKQNKIKTI to IKTKGRYKKQRT, the protein stability index rises from 0.186 ± 0.013 to 0.34 ± 0.018.

Going from ILFIVSSCGCVG to ILISVNRVVLYC, the protein stability index falls from 0.443 ± 0.024 to 0.115 ± 0.014.

Compared with ILRKTAFRLRVL, IMWCSSVSEVQW is higher in protein stability index: 0.228 ± 0.016 for the first, 0.492 ± 0.03 for the second.

IPFRRCFWFFWV and ISSYKFLRIVLV are within error of each other in protein stability index: 0.143 ± 0.014 for the first, 0.131 ± 0.031 for the second.

Compared with ISVSFSVIFFLL, IWIRLGSENTVI is higher in protein stability index: 0.0751 ± 0.0046 for the first, 0.672 ± 0.026 for the second.

Compared with IWWFKELRVCRV, IYFFFFALHFPN is lower in protein stability index: 0.4128 ± 0.0013 for the first, 0.388 ± 0.019 for the second.

Work on KAIILGNIKINF yielded a protein stability index of 0.638 ± 0.026.

Same assay, conditions: genetic background: wild type; temperature: 30 C

Going from GVKSQLYSFVWF to GVRCRLVIRVLG, the protein stability index falls from 0.352 ± 0.018 to 0.22 ± 0.0075.

Compared with GVSFLFVGVSLV, GVVCWVVVFGGW is lower in protein stability index: 0.354 ± 0.015 for the first, 0.262 ± 0.034 for the second.

Going from GVWSLDWFLLVW to GWFCLFFVVSTG, the protein stability index rises from 0.15 ± 0.023 to 0.225 ± 0.031.

First: GWIFFYFTWFVG
Second: GWLSVLVYFLSG
The protein stability index of the first is lower: 0.172 ± 0.035 for the first, 0.326 ± 0.0091 for the second.

Going from GWVSCCVWSFLV to HALCLSVYVSAH, the protein stability index rises from 0.066 ± 0.0087 to 0.185 ± 0.02.

Going from HCLLQDVPPTLH to HCNRRNKIYWYS, the protein stability index falls from 0.702 ± 0.015 to 0.111 ± 0.032.

Going from HILRLVYFIVYE to HLYCYNILLVSG, the protein stability index falls from 0.293 ± 0.015 to 0.254 ± 0.015.

HSPRVLLPLYFR and ICFPLQIFRILV are within error of each other in protein stability index: 0.278 ± 0.037 for the first, 0.246 ± 0.019 for the second.

Compared with IEVGVAILLLGE, IFFSLFFFFLCN is lower in protein stability index: 0.529 ± 0.01 for the first, 0.289 ± 0.011 for the second.

Going from IGLSIWSVVSAL to IILGVRQIEVNS, the protein stability index rises from 0.286 ± 0.033 to 0.373 ± 0.031.

Compared with IKSIKQNKIKTI, IKTKGRYKKQRT is higher in protein stability index: 0.171 ± 0.079 for the first, 0.376 ± 0.058 for the second.

First: ILFIVSSCGCVG
Second: ILISVNRVVLYC
The protein stability index of the first is higher: 0.446 ± 0.015 for the first, 0.14 ± 0.017 for the second.

First: ILRKTAFRLRVL
Second: IMWCSSVSEVQW
The protein stability index of the first is lower: 0.264 ± 0.024 for the first, 0.494 ± 0.047 for the second.

IPFRRCFWFFWV and ISSYKFLRIVLV are within error of each other in protein stability index: 0.167 ± 0.024 for the first, 0.149 ± 0.032 for the second.

Compared with ISVSFSVIFFLL, IWIRLGSENTVI is higher in protein stability index: 0.0951 ± 0.01 for the first, 0.653 ± 0.032 for the second.

IWWFKELRVCRV and IYFFFFALHFPN are within error of each other in protein stability index: 0.424 ± 0.024 for the first, 0.407 ± 0.025 for the second.

KAIILGNIKINF was tested, and the protein stability index was 0.624 ± 0.018.

Same assay, conditions: genetic background: wild type; temperature: 37 C

Compared with GVKSQLYSFVWF, GVRCRLVIRVLG is lower in protein stability index: 0.593 ± 0.014 for the first, 0.407 ± 0.0064 for the second.

Going from GVSFLFVGVSLV to GVVCWVVVFGGW, the protein stability index falls from 0.523 ± 0.019 to 0.442 ± 0.058.

Compared with GVWSLDWFLLVW, GWFCLFFVVSTG is higher in protein stability index: 0.217 ± 0.017 for the first, 0.371 ± 0.012 for the second.

First: GWIFFYFTWFVG
Second: GWLSVLVYFLSG
The protein stability index of the first is lower: 0.275 ± 0.0097 for the first, 0.481 ± 0.022 for the second.

Compared with GWVSCCVWSFLV, HALCLSVYVSAH is higher in protein stability index: 0.063 ± 0.016 for the first, 0.323 ± 0.018 for the second.

First: HCLLQDVPPTLH
Second: HCNRRNKIYWYS
The protein stability index of the first is higher: 0.66 ± 0.02 for the first, 0.189 ± 0.014 for the second.

Compared with HILRLVYFIVYE, HLYCYNILLVSG is lower in protein stability index: 0.554 ± 0.017 for the first, 0.375 ± 0.038 for the second.

HSPRVLLPLYFR and ICFPLQIFRILV are within error of each other in protein stability index: 0.328 ± 0.021 for the first, 0.345 ± 0.006 for the second.

Compared with IEVGVAILLLGE, IFFSLFFFFLCN is lower in protein stability index: 0.6791 ± 0.0027 for the first, 0.4212 ± 0.0014 for the second.

First: IGLSIWSVVSAL
Second: IILGVRQIEVNS
The protein stability index of the first is lower: 0.5056 ± 0.0043 for the first, 0.52 ± 0.0076 for the second.

Going from IKSIKQNKIKTI to IKTKGRYKKQRT, the protein stability index rises from 0.246 ± 0.032 to 0.572 ± 0.045.

First: ILFIVSSCGCVG
Second: ILISVNRVVLYC
The protein stability index of the first is higher: 0.5724 ± 0.0043 for the first, 0.1901 ± 0.00075 for the second.

First: ILRKTAFRLRVL
Second: IMWCSSVSEVQW
The protein stability index of the first is lower: 0.376 ± 0.01 for the first, 0.5016 ± 0.0029 for the second.

IPFRRCFWFFWV and ISSYKFLRIVLV are within error of each other in protein stability index: 0.204 ± 0.027 for the first, 0.191 ± 0.0035 for the second.

Going from ISVSFSVIFFLL to IWIRLGSENTVI, the protein stability index rises from 0.137 ± 0.002 to 0.78 ± 0.015.

IWWFKELRVCRV and IYFFFFALHFPN are within error of each other in protein stability index: 0.539 ± 0.017 for the first, 0.544 ± 0.047 for the second.

For KAIILGNIKINF, the protein stability index was 0.741 ± 0.045.

Test system: Saccharomyces cerevisiae
Assay: as above
Conditions: genetic background: wild type; temperature: 30 C

First: GVKSQLYSFVWF
Second: GVRCRLVIRVLG
The protein stability index of the first is higher: 0.45 ± 0.015 for the first, 0.316 ± 0.028 for the second.

GVSFLFVGVSLV and GVVCWVVVFGGW are within error of each other in protein stability index: 0.419 ± 0.041 for the first, 0.416 ± 0.035 for the second.

Going from GVWSLDWFLLVW to GWFCLFFVVSTG, the protein stability index rises from 0.24 ± 0.016 to 0.342 ± 0.026.

Compared with GWIFFYFTWFVG, GWLSVLVYFLSG is higher in protein stability index: 0.263 ± 0.022 for the first, 0.408 ± 0.03 for the second.

Going from GWVSCCVWSFLV to HALCLSVYVSAH, the protein stability index rises from 0.122 ± 0.015 to 0.281 ± 0.024.

Compared with HCLLQDVPPTLH, HCNRRNKIYWYS is lower in protein stability index: 0.734 ± 0.031 for the first, 0.304 ± 0.051 for the second.

First: HILRLVYFIVYE
Second: HLYCYNILLVSG
The protein stability index of the first is higher: 0.4189 ± 0.003 for the first, 0.286 ± 0.042 for the second.

HSPRVLLPLYFR and ICFPLQIFRILV are within error of each other in protein stability index: 0.378 ± 0.086 for the first, 0.3549 ± 0.0027 for the second.

IEVGVAILLLGE and IFFSLFFFFLCN are within error of each other in protein stability index: 0.514 ± 0.12 for the first, 0.35 ± 0.056 for the second.

Compared with IGLSIWSVVSAL, IILGVRQIEVNS is higher in protein stability index: 0.392 ± 0.024 for the first, 0.4447 ± 0.0033 for the second.

First: IKSIKQNKIKTI
Second: IKTKGRYKKQRT
The protein stability index of the first is lower: 0.292 ± 0.008 for the first, 0.408 ± 0.014 for the second.

First: ILFIVSSCGCVG
Second: ILISVNRVVLYC
The protein stability index of the first is higher: 0.471 ± 0.0064 for the first, 0.2171 ± 0.00013 for the second.

Compared with ILRKTAFRLRVL, IMWCSSVSEVQW is higher in protein stability index: 0.397 ± 0.025 for the first, 0.4741 ± 0.0032 for the second.

Going from IPFRRCFWFFWV to ISSYKFLRIVLV, the protein stability index falls from 0.2345 ± 0.0012 to 0.189 ± 0.0046.

Compared with ISVSFSVIFFLL, IWIRLGSENTVI is higher in protein stability index: 0.154 ± 0.044 for the first, 0.443 ± 0.22 for the second.

IWWFKELRVCRV and IYFFFFALHFPN are within error of each other in protein stability index: 0.49 ± 0.013 for the first, 0.524 ± 0.067 for the second.

KAIILGNIKINF showed a protein stability index of 0.539 ± 0.16.
